The values that follow come from paper PMC11094003, “Chemical manipulation of an activation/inhibition switch in the nuclear receptor PXR” (Nature Communications, 2024).

Assay [1] deals with T1, L428V mutant of human pregnane X receptor ligand binding domain (residues 130-434) (human, UniProt O75469 130-434, L428V).
T1 construct: As m1, one polypeptide with the SRC-1 peptide: His6 - PXR 130-434 (L428V) - SGGSGG linker - SRC-1 678-710; also called PXR^L428V LBD; source: E. coli BL21(DE3), purified (HisTrap, HiTrap SP flow-through, Superdex 200 SEC)
T1 sequence (looked up): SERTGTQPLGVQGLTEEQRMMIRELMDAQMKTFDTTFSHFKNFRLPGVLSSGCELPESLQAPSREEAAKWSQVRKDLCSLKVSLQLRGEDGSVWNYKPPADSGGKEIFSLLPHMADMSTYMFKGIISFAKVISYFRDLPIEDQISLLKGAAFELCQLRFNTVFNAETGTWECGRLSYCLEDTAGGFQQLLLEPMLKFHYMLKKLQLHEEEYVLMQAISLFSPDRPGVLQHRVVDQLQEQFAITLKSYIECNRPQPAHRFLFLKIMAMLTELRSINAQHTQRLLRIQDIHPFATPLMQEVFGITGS
As to the kind of experiment: crystal structure; PXR L428V LBD tethered to the SRC-1 peptide on one chain, apo and with the antagonist SJPYT-331; 50 mM Bis-Tris pH 6-7, 10-20% MPD, 20 °C. The following applies: both partners purified.

In assay [2] the target is T2, human pregnane X receptor ligand binding domain (residues 130-434) (human, UniProt O75469 130-434).
T2 construct: In the crystallised construct this domain and the SRC-1 peptide are one polypeptide: His6 - PXR 130-434 - SGGSGG linker - SRC-1 678-710; Written here as a molecule of its own for the pair PXR LBD / SRC-1; also called PXR LBD; WT PXR LBD; source: E. coli BL21(DE3), purified (HisTrap, HiTrap SP flow-through, Superdex 200 SEC)
T2 sequence (looked up): T1 sequence (looked up) with V299L
As to the kind of experiment: crystal structure; PXR LBD tethered to the SRC-1 peptide on one chain, co-crystallised with an antagonist (SJPYT-310, SJPYT-278, SJPYT-312 or SJPYT-331; 2:1 ligand to protein); 50 mM Bis-Tris pH 6-7, 10-20% MPD, 20 °C. The note with it: both partners purified.

Numbering of substitutions follows the chain as printed.

B1: SRC-1 peptide (residues 678-710), 33 amino acids (peptide, UniProt Q15788 678-710, looked up)
chain: SSHSSLTERHKILHRLLQEGSPSDITTLSVEPD
notes: Not a free peptide: tethered to the C-terminus of PXR LBD (m1 or m3) through an SGGSGG linker on one chain; also called tethered SRC-1 peptide
On to B1, for which the binding result in assay [1] and in assay [2] was “binds” each time.
